# Reference: US6613358B2, “Sustained-release composition including amorphous polymer” (priority 1998, dated 2003)
# Several values for one entry are separate records, joined by “and”; a condition that tells them apart may be missing. Identical values can stand only once. Peptide text beside a SMILES is read from it.
# Tests used:
# [1] = Apparent partition coefficient water/1-octanol upon SDS addition
# Description: The relative solubilities in two phases is given in terms of an apparent partition coefficient. The apparent partition coefficient is defined as the ratio of the equilibrium concentration in an organic phase to that in an aqueous phase. The actual value of the apparent partition coefficient, P, is dependent on the two solvent systems employed. In all cases herein described, the organic phase is 1-octanol and the aqueous phase is water alone or with a minimal amount of HCl added.
# Apparent partition coefficients were measured by dissolving a peptide in 1.25 ml of an aqueous solution. Before SDS addition, the pH was measured on a Beckman pH meter. […] An equal volume of 1-octanol was added and the mixtures agitated, and then left undisturbed for several hours. Prior to analysis, the tubes were spun for 10 minutes at 4000 g. Each layer was removed and the absorbance measured on a Beckman DU-64 UV-visible spectrophotometer using I cm quartz cells. All apparent partition coefficients were corrected for changes in pH with differing SDS concentrations.
# Results are described as logarithms of the apparent partition coefficient. A log P value of 0 means that the compound is equally soluble in water and the organic phase. […] All of the log P values reported herein have been corrected for slight changes in solubility with pH.
# [2] = tested on: CCRF-CEM cells; assay: Cytotoxicity, MTS cell proliferation assay; type: cell-based, human; conditions: for IC50: Homo sapiens, 2-6 hours exposure, 72 hours incubation, read-out: IC50 (half-maximal growth inhibition)
# Protocol: (§1) The cytotoxicity of arginine dodecyl ester was investigated in cell culture with two types of cells (see Cory et al, Cancer Commun., 3, 207-212 (1991)): CCRF-CEM cells, a human T-cell leukemia cell line that grows in suspension (obtained from the American Type Culture Collection, ATCC); and a green monkey kidney cell line (COS-7) that grows in monolayers (also obtained from ATCC). For comparison, the cells were also exposed to […] bromide (DTAB) (Sigma).
# (§2) Cells were plated into 96-well plates (Corning) in a total of 200 μL Dulbecco's modified minimal essential medium for COS-7 cells, RPMI 1640 for CEM cells, supplemented with penicillin G (50 U/ml), streptomycin sulfate (50 μg/ml), and 10% fetal calf serum, at 10,000 cells/well for COS-7 and 50,000 cells/well for CEM cells. The plates were incubated at 37° C. for 24 hours after plating. The cells were then exposed to various concentrations of the detergents. Each detergent concentration was used in 8 replicate wells. After 2-6 hours, media/detergent solutions were aspirated, and the wells were washed twice with PBS. For CEM suspension cells, centrifugation of the suspension at 1000× g for 5 min between each wash was required. After washing, 200 μL of fresh medium were added, and the cells were incubated for 72 hours. After 72 hours, cell proliferation was determined using the Promega CellTiter 96 AQueous Non-Radioactive Cell Proliferation Assay.
# [3] = tested on: COS-7 cells; assay: Cytotoxicity, MTS cell proliferation assay; type: cell-based, green monkey
# Protocol: as §1
# as §2, with “After washing, 200 μL of fresh medium were added, and the cells were incubated for 72 hours.” left out, “Assay. […]” for “Assay.”
# [4] = Surface tension, critical micelle concentration; type: physicochemical; conditions: in 0.1 N HCl
# Protocol: Surface tension was measured using a Fisher surface tensiometer. Briefly, a platinum iridium ring with a diameter of 6 cm was lowered into the appropriate dilution of detergent in 0.1 N HCl. Surface tension was read at the point where the force on the ring upwards caused the ring to break contact with the liquid surface.
# [5] = tested on: COS-7 cells; assay: Transfection of plasmid pRSV400luc, luciferase activity; type: cell-based, green monkey; conditions: without liposomes or helper lipids; serum-containing medium
# Description: The plasmid used was pRSV400luc. It was obtained from Dr. David Gordon Div. Endocrinology, University of Colorado School of Medicine, Denver, Colo. It was propagated in Escherichia coil strain DH5a (ATCC), isolated by a standard alkaline-SDS Iysis procedure, and purified twice by isopycnic centrifugation on CsCl gradients (Sambrook et al, Molecular Cloning: A Laboratory Manual (Cold Spring Harbor Laboratory) (1989). COS-7 cells at approximately 50,000 cells per 60 mm diameter plate (Falcon) were used for transfection. Control experiments were done with Lipofectamine (GIBCO/Life Technologies, Gaithersburg, Md.).
# In 200 total μl of serum-free medium, plasmid (20 μg) and Lipofectamine or arginine dodecyl ester were mixed and allowed to interact for 45 minutes. […] Plates with cells were washed with serum-free medium. Then, 1 mL serum-free medium was added to plates already containing 2 mL serum-free medium and the plates were incubated at 37° C. for 4 hours. […]
# After allowing cells to grow and express gene product for 36-50 hours, the cells were harvested. […] Intensity of luminescence should be proportional to the amount of expressed luciferase and, therefore, the efficiency of transfection. “Background” is the reading from just the substrate mixture on the luminometer before addition of cell lysate. […] Any reading over 100 units is considered significant.
# [6] = Solubility of arginine octyl ester powder; type: physicochemical
# [7] = Partitioning of anionic compounds with arginine esters; type: physicochemical; conditions: for log p: pH 5.5 buffer, 1 mg/mL
# Protocol: Stock solutions of the arginine esters were made by first dissolving the powder in 0.1 N HCl to give a 10 mM solution and then raising the pH to a value between 5 and 6. The pH should not be raised above 8.
# Anionic compounds were dissolved in pH 5.5 buffer (10 mM bis-tris propane, 10 mM CaCl2, 10 mM KCl). Appropriate amounts of the stock solution of arginine ester (see above), the anionic compound and buffer were mixed so that the final concentration of the anionic material was 1 mg/mL. An equal volume of organic solvent was added, and the samples were vortexed for 15 seconds on high speed. Layers were separated by centrifugation at 4000 rpm for 5 minutes. Concentrations of the anionic material in the aqueous and organic layers were determined by UV spectroscopy on a Beckman DU-64 series spectrophotometer.
# [8] = type: physicochemical
# Description: Larger proteins can also form complexes with SDS. […] At higher SDS concentrations, hGH redissolves, presumably via micellar solubilization. […] Other proteins can also form complexes with SDS. Bovine pancreatic trypsin inhibitor (BPTI) is a small basic protein (MW 5900) with a well defined and stable structure (Wlodawer et. al. (1984) J. Mol. Biol. 180:301-329, and (1987) J. Mol. Biol. 193:145-156). […] In TMP, the globular structure is compromised, as determined by CD spectroscopy. Apparently, TMP is a strong enough solvent to displace water from the hydration sphere and destabilize the structure of BPTI. This mechanism of protein denaturation has been described in detail by Arakawa and […] (1982) Biochemistry 21:6536-6544. and (1982) Biochemistry 21:6545-6552.
# [9] = Thermal denaturation (Tm) following molar ellipticity at 222 nm; type: physicochemical
# Description: [define Tm. […] (FIG. 6), which is more than 30 degrees above that observed in water.
# [10] = CD spectrometry of protein structure in organic solvent; type: physicochemical; conditions: extracted from 1-octanol into 0.10 M HCl; 53 ug/ml, 5° C.
# Protocol: CD spectra were recorded on an Aviv 62DS spectrophotometer equipped with a thermoelectric temperature unit. All temperatures were measured ±0.2° C. Samples were placed in strain-free quartz cells (pathlength of 1 mm) and spectra obtained taking data every 0.25 nm using a three second averaging time, and having a spectral bandwidth of 1 nm.
# The pathlength was 1 mm, the sample concentration 53 ug/ml, and the sample temperature 5° C.
# [11] = Partitioning and dissolution of SDS-insulin complexes in non-aqueous solvents; type: physicochemical; conditions: for Apparent Sol. / Log P: SDS-insulin complex
# Description: Dissolution of insulin-SDS complexes in other solvents was investigated as well (Table 1). Precipitates of SDS-insulin complexes were isolated and added to various organic solvents. […] Besides alcohols. SDS-insulin complexes are soluble in N-methylpyrrolidone (NMP), trimethylphosphate (TRIP), polyethylene glycol, ethanol, and t-butanol.
# [12] = Melting point of SDS:insulin ion pairs in 1-octanol (CD signal and absorbance at 222 nm); type: physicochemical
# Protocol: Equal volumes of octanol were added to each SDS:insulin solution to partition the insulin into the octanol phase. […] Both circular dichroism (CD) signal and light scattering (as measured by changes in absorbance) were measured at 222 nm and the melting point determined by an inflection point in the measured scan.
# [13] = organic solvent Propylene Glycol
# [14] = organic solvent Trifluoroethanol
# [15] = organic solvent Trimethyl phosphate
compound,measurement,setting,value
"NC(=O)CC[C@@H]1NC(=O)[C@H](Cc2ccccc2)NC(=O)[C@H](Cc2ccc(O)cc2)NC(=O)[C@@H](N)CSSC[C@@H](C(=O)N2CCC[C@H]2C(=O)N[C@@H](CCCN=C(N)N)C(=O)NCC(N)=O)NC(=O)[C@H](CC(N)=O)NC1=O [AVP, 8-Arg-vasopressin]",log p,[1]; pH 7,> 1
same,increase of apparent partition coefficient,"[1]; upon stoichiometric SDS addition, water/1-octanol",nearly four orders of magnitude
"CCCCCCCCCCCCCC[N+](C)(C)C [DTAB, tetradecyltrimethylammonium bromide, reference compound]",IC50,[2],20 µM
same,IC50,"[3]; Chlorocebus sabaeus, 2-6 hours exposure, 72 hours incubation, read-out: IC50 (half-maximal growth inhibition)",80 µM
NCC(=O)N[C@@H](Cc1ccccc1)C(=O)O [Gly-Phe] (H-Gly-Phe-OH),enhancement of partition coefficient with SDS,[1]; neutral pH (zwitterionic form),little enhancement of the partition coefficient is observed
same,partitioning with SDS,[1]; pH 3,mirrors the marked increase seen for Gly-PheNH2
CCCCCCCCCCCCOC(=O)[C@@H](N)CCCNC(=N)N [arginine dodecyl ester],toxicity relative to DTAB,[2],seven-fold less toxicity
same,IC50,[2],150 µM
same,critical micelle concentration (cmc),[4],approximately 0.3 mM and ~0.10 mg/ml
same,transfection of the plasmid,[5],promoted transfection of the plasmid in a concentration and time dependent manner
same,toxicity relative to DTAB,[3],approximately two-fold less toxicity
CCCCCCCCOC(=O)[C@@H](N)CCCNC(=N)N [arginine octyl ester],dissolution in HCl,[6],would only dissolve in 0.1 N or stronger HCl
same,solubility in water,[6],insoluble
same,solubility in organics,"[6]; alcohols, hydrocarbons, aromatics, DMF and pyridine",insoluble
same,critical micelle concentration (cmc),[4],about 6 mM and ~2.2 mg/ml
"Cc1ccc(S(=O)(=O)[O-])cc1.[Na+] [p-toluenesulfonic acid, sodium salt]",log p,"[7]; Ester C8 (arginine octyl ester), solvent isooctane",−2.2
same,log p,"[7]; Ester C8 (arginine octyl ester), solvent octanol",−0.353
same,log p,"[7]; Ester C12 (arginine dodecyl ester), solvent octanol",−0.336
same,log p,"[7]; Ester none, solvent isooctane",−2.7
same,log p,"[7]; Ester none, solvent octanol",−1.62
Gly-Phe-NH2,partitioning of SDS complex into 1-octanol,"[1]; pH 7, 1:1 complex with SDS",readily partitions into 1-octanol
bovine serum albumin: protein tested for partitioning with arginine dodecyl ester,partitioning into octanol layer,"[7]; arginine dodecyl ester added, solutions turned cloudy",none would partition into octanol layer
hGH: human growth hormone,solubility of SDS precipitate in 1-octanol,[8],not found to be soluble
same,aqueous behaviour on addition of SDS,[8]; pH 2,precipitates from aqueous solution
same,aqueous solubility on addition of SDS,[8]; pH 7.8,not affected
insulin,Tm in 1-octanol above that observed in water,[9],more than 30 degrees
same,Tm of thermal denaturation,"[9]; in 1-octanol (SDS complex), molar ellipticity at 222 nm",98 °C
same,Tm of thermal denaturation,[9]; in aqueous solution,about 65 °C
same,structure by CD after extraction back into aqueous phase,[10],overall structure similar to that of native insulin
same,Apparent Sol.,[11]; organic solvent 1-Chlorooctane,insoluble
same,Log P,[11]; organic solvent 1-Chlorooctane,not detectable
same,Apparent Sol.,[11]; organic solvent 1-octanol,≧1.0 mg/ml
same,Log P,[11]; organic solvent 1-octanol,≧1.2
same,Log P,[11]; organic solvent Acetone,miscible
same,Apparent Sol.,[11]; organic solvent CCl4,insoluble
same,Log P,[11]; organic solvent CCl4,not detectable
same,Apparent Sol.,[11]; organic solvent CH2Cl2,insoluble
same,Log P,[11]; organic solvent CH2Cl2,not detectable
same,Apparent Sol.,[11]; organic solvent DMF,≧1.0 mg/ml
same,Log P,[11]; organic solvent Dimethoxyethane,not detectable
same,Apparent Sol.,[11]; organic solvent Ethanol,≧1.0 mg/ml
same,Log P,[11]; organic solvent Ethanol,miscible
same,Apparent Sol.,[11]; organic solvent Ether,insoluble
same,Log P,[11]; organic solvent Ether,not detectable
same,Apparent Sol.,[11]; organic solvent Ethyl acetate,insoluble
same,Log P,[11]; organic solvent Ethyl acetate,miscible
same,Apparent Sol.,[11]; organic solvent Hexane,insoluble
same,Log P,[11]; organic solvent Hexane,not detectable
same,Apparent Sol.,[11]; organic solvent Methanol,≧1.0 mg/ml
same,Log P,[11]; organic solvent Methanol,miscible
same,Apparent Sol.,[11]; organic solvent Mineral Oil,insoluble
same,Log P,[11]; organic solvent Mineral Oil,not detectable
same,Apparent Sol.,[11]; organic solvent NMP,≧1.0 mg/ml
same,Log P,[11]; organic solvent NMP,miscible
same,Apparent Sol.,[11]; organic solvent PEG 400,≧0.2 mg/ml
same,Log P,[11]; organic solvent PEG 400,miscible
same,Apparent Sol.,[11]; [13],≧0.5 mg/ml
same,Log P,[11]; [13],miscible
same,Log P,[11]; organic solvent THF,miscible
same,Apparent Sol.,[11]; organic solvent TMP,≧0.2 mg/ml
same,Log P,[11]; organic solvent TMP,miscible
same,Apparent Sol.,[11]; [14],≧0.5 mg/ml
same,Log P,[11]; [14],miscible
same,Apparent Sol.,[11]; [15],≧0.15 mg/ml
same,Log P,[11]; [15],miscible
same,Apparent Sol.,[11]; organic solvent i-Propanol,≧1.0 mg/ml
same,Log P,[11]; organic solvent i-Propanol,miscible
insulin-SDS complex: hydrophobic ion pair complex of insulin with sodium dodecyl sulfate,melting point in octanol (apparent maximum),"[12]; 6:1 SDS:insulin molar ratio, 200 ug/ml",about 116 °C
same,"melting point in octanol, absorbance scan at 222 nm",[12]; 9:1 SDS:insulin molar ratio,106 °C
same,"melting point in octanol, CD scan at 222 nm","[12]; 9:1 SDS:insulin molar ratio, maxima of first derivative",106 °C
same,structure after prolonged heating,"[9]; in 1-octanol, 70° C. for more than 1 hour",appears to maintain its native structure
same,solubility in organic solvents,[11],soluble
